The Kd is the constant that tells how readily two partners part at equilibrium. Higher therefore signals weaker binding. One may read the koff as a measure of how fast the partners let go of each other. Read a low koff as slow dissociation. Broadly, the kon is the rate constant with which the complex forms. Low readings indicate slow association, high ones fast association.

20 molecules from patent US20250026813A1 (published 2025) can be followed below.

The target of experiment [1] is T1, S2 subunit of the SARS-CoV-2 spike protein (Sino Biological 40590-V08B), His tag (SARS-CoV-2, UniProt P0DTC2 686-1213).
T1 construct: domain: S2 subunit

In experiment [2] the target is SARS-CoV-2 spike protein receptor binding domain (isolated RBD) (SARS-CoV-2, UniProt P0DTC2 319-541).

B1: IMPI-006 (antibody, V domains shown)
VH: QLQLQESGPGLVKPSETLSLTCTVSGGSISNSNYYWGWIRQPPGKGLEWIGSIYYSGRTYYNPSLKSRVTISVDTSKNQFSLKLSSVTAADTAVYYCARMGLLWFGEFYGMDVWGQGTTVTVSS
VL: DIQMTQSPSSLSASVGDRVTITCRASQGISSWLAWYQQKPEKAPKSLIYDASSLQRGVPSRFSGSGSGTDFTLTISSLQPEDFASYYCQQYNSYPLTFGGGTRVEIK
Consider B1, for which the “HTRF deltaF” value in experiment [1] was found to be 40.7 deltaF.

B2: IMPI-024 (antibody, V domains shown)
VH: EVQLVQSGAEVKKPGESLKISCKGSGYSFTSYWIGWVRQMPGKGLEWMGIIYPGDSDTRYSPSFQGQVTISADKSISTAYLQWSSLKASDTAMYYCVRSYNWNYFDYWGQGTLVTVSS
VL: AIQLTQSPSSLSASVGDRVTITCRASQGISSGLAWYQQKAGKAPKLLIYDVSSLESGVPSRFSGSGSGTDFTLTISSLQPEDFATYYCQQFLSYPWTFGQGTKVEIK
As for B2, the “HTRF deltaF” value in experiment [1] was -15.4 deltaF.

B3: IMPI-024 (antibody, V domains shown)
VH: EVQLVQSGAEVKKPGESLKISCKGSGYSFTSYWIGWVRQMPGKGLEWMGIIYPGDSDTRYSPSFQGQVTISADKSISTAYLQWSSLKASDTAMYYCVRSYNWNYFDYWGQGTLVTVSS
VL: AIQLTQSPSSLSASVGDRVTITCRASQGISSGLAWYQQKAGKAPKLLIYDVSSLESGVPSRFSGSGSGTDFTLTISSLQPEDFATYYCQQFLSYPWTFGQGTKVEIK
In experiment [2], B3 registered a dissociation constant (Kd) of 0.633 nM, a koff of 0.00134 s⁻¹ and a kon of 2.12e+06 M⁻¹ s⁻¹.

B4: IMPI-027 (antibody, V domains shown)
VH: QVQLQESGPGLVKPSQTLSLTCTVSGGSISSYGYYWNWIRQHPGKGLEWIGYIYYSGSTYYNPSLKSRVTISVDTSKNQLSLRLNSVSAADTAVYYCARDFGGNSNYFDYWGQGTLVTVSS
VL: AIQLTQSPSSLSASVGDRVTITCRTSQGISSALAWYQQKPGKAPKLLIYDASSLESGVPSRFSGSGSGTDFTLTISSLQPEDFATYYCQQFNSYPLTFGGGTKVEIK
For the molecule B4, in experiment [2], the Kd is 4.06 nM, the koff is 26.3 s⁻¹ and the kon was 6.48e+09 M⁻¹ s⁻¹.

B5: IMPI-068 (antibody, V domains shown)
VH: QVQLVESGGDVVQPGRSLRLSCAASGFTFSRYGMHWVRQAPGKGLEWVAVISYDGSDKYYADSVKGRFTISRDNSKNTLYLQMNSLRAEDTAVYYCAKQLPLYYYYYGMDVWGQGTTVTVSS
VL: AIQLTQSPSSLSASVGDRVTITCRASQGISSALAWYQQKPGKAPNLLIYDASSLESGVPSRFSGSGSGTDFTLTISSLQPEDFATYYCQQFNIYPHTFGPGTKVDIK
As for B5, in experiment [2], binding was put at a Kd of 40.5 nM.

B6: IMPI-033 (antibody, V domains shown)
VH: QVQLQESGPGLVKPSQTLSLTCTVSGGSISSYGYYWSWIRQHPGKGLEWIGYIYYSGSTYYNPSLKSRVTMSVDTSKNQLSLRLNSVSAADTAVYYCARDFGGNSNYFDYWGQGTLVTVSS
VL: AIQLTQSPSSLSASVGDRVTITCRASQGISSALAWYQQKPGKAPNLLIYDASSLESGVPSRFSGSGSGTDFTLTISSLQPEDFATYYCQQFNSSPLTFGGGTKVEIK
Take B6: in experiment [2], binding was characterised by a dissociation constant (Kd) of 3.37 nM, the koff amounted to 0.00741 s⁻¹ and the kon was found to be 2.2e+06 M⁻¹ s⁻¹.

B7: IMPI-063 (antibody, V domains shown)
VH: EVQLVESGGGVVRPGGSLRLSCAASGFTFDDYGMSWVRQAPGKGLEWVSGIYWNGGSTGYADSVKGRFTISRDNAKNSLYLQMNSLRAEDMALYYCARGVGATDYWGQGTLVTVSS
VL: EIVLTQSPGTLSLSSGERATLACRASESVRGSFLAWYQQKPGQAPRLLIYGASRRATGIPDRFSGSGSGTDFTLTISRLEPEDFAVYYCQQYGNSPMCSFGQGTKLEIK
For the molecule B7, the “HTRF deltaF” value in experiment [1] was determined as 411 deltaF.

B8: IMPI-029 (antibody, V domains shown)
VH: EVQLVESGGGLIQPGGSLRLSCAASGVTVSSNYMNWVRQAPGKGLEWVSVIYSGGSTYYADSVKGRFTISRDNSKNTLFLQMNSLRAEDSAVYYCARDLGPYGVDVWGQGTTVTVSS
VL: DIQLTQSPSFLSASVGDRVTITCWASQGISSYLAWYQQKPGKAPKLLIYAASTLQSGVPSRFSGSGSGTEFTLTISSLQPEDFATYYCQELNSYPLTFGQGTRLEIK
Take B8: the “HTRF deltaF” value in experiment [1] came to 4.1 deltaF.

B9: IMPI-037 (antibody, V domains shown)
VH: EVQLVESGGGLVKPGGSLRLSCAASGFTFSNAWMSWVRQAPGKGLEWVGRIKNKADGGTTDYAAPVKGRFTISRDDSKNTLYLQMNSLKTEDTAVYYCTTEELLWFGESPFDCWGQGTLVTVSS
VL: DIQLTQSPSFLSASVGDRVTITCWASQGINSYLAWYQQKPGKAPKLLIYAASTLQSGVPSRFSGSGSGTEFTLTISSLQPEDFTTYYCQQFNDYPRTFGPGTKVEIK
In experiment [2], B9 gave a Kd of 9.28 nM, a koff of 0.0232 s⁻¹ and a kon of 2.5e+06 M⁻¹ s⁻¹.

B10: IMPI-047 (antibody, V domains shown)
VH: EVQLVESGGGLIQPGGSLRLSCAASGFTVSSNYMNWVRQAPGKGLEWVSVIYSGGSTYYADSVKGRFTISRDNSKNTLYLQMNSLRTEDTAVYYCARDLVAYGMDVWGQGTTVTVSS
VL: DIQLTQSPSFLSASVGDRVTITCWASQGISSYLAWYQQKPGKAPKVLIYAASTLQSGVPSRFSGSGSGTEFTLTISSLQPEDFATYYCQLLNSNPLTFGGGTKVEIK
For the molecule B10, the “HTRF deltaF” value in experiment [1] is 4.3 deltaF.

B11: IMPI-017 (antibody, V domains shown)
VH: EVQLVESGGGLIQPGGSLRLSCAAAGLTVSSNYMNWVRQVPGKGLEWVSVIYSGGSTYYADSVKGRFTISRDNSKNTLYLQMNSLRAEDTAVYYCARDLGTLGMDVWGQGTTVTVSS
VL: DIQLTQSPSFLSASVGDRVTITCWASQGISTYLAWYQQKPGKAPKLLIYAASTLQSGVPSRFSGSGSGTEFTLTISSLQPEDFATYYCQQLNSYLPTFGQGTKVEIK
In experiment [2], B11 had a Kd of 1.87 nM, a koff of 0.000976 s⁻¹ and a kon of 522000 M⁻¹ s⁻¹.

B12: IMPI-017 (antibody, V domains shown)
VH: EVQLVESGGGLIQPGGSLRLSCAAAGLTVSSNYMNWVRQVPGKGLEWVSVIYSGGSTYYADSVKGRFTISRDNSKNTLYLQMNSLRAEDTAVYYCARDLGTLGMDVWGQGTTVTVSS
VL: DIQLTQSPSFLSASVGDRVTITCWASQGISTYLAWYQQKPGKAPKLLIYAASTLQSGVPSRFSGSGSGTEFTLTISSLQPEDFATYYCQQLNSYLPTFGQGTKVEIK
For the molecule B12, in experiment [1], the “HTRF deltaF” value was determined as 13 deltaF.

B13: IMPI-021 (antibody, V domains shown)
VH: EVQLVESGGGLIQPGGSLRLSCAASGVTVSSNYMSWVRQAPGKGLEWVSVIYSGGSTFYADSVKGRFTISRDNSKNTLYLQMNSLRAEDTAVYYCARDLSYYGMDVWGQGTTVTVSS
VL: DIQLTQSPSFLSASVGDRVTITCWASQGISSYLAWYQQKPGKAPKLLIYAASTLQSGVPSKFSGSGSGTEFTLTISSLQPEDFATYYCQQLNSYPCSFGQGTKLEIK
For the molecule B13, the “HTRF deltaF” value in experiment [1] was -0.3 deltaF.

B14: IMPI-060 (antibody, V domains shown)
VH: EVQLVESGGGLIQPGGSLRLSCAASGVTVSSNYMSWVRQAPGKGLEWVSVIYSGGSTFYADSVKGRFTISRDNSKNTLYLQMNSLRAEDTAVYYCARDLSYYGMDVWGQGTTVTVSS
VL: DIQLTQSPSFLSASVGDRVTITCWASQGISSYLAWYQQKPGKAPKLLIYAASTLQSGVPSKFSGSGSGTEFTLTISSLQPEDFATYYCQQLNSYPSSFGQGTKLEIK
On to B14, for which the “HTRF deltaF” value in experiment [1] stood at 6 deltaF.

B15: IMPI-005 (antibody, V domains shown)
VH: EVQLVESGGGLIQPGGSLRLSCAASGFTVSSNYMNWVRQAPGKGLEWVSVIYSGGSTYYADSVKGRFTISRDNSKNTLFLQMNSLRAEDSAVYYCARDLGPYGVDVWGQGTTVTVSS
VL: DIQLTQSPSFLSASVGDRVTITCWASQGISSYLAWYQQKPGKAPKLLIYAASTLQSGVPSRFSGSGSGTEFTLTISSLQPEDFATYYCQELNSYPLTFGQGTRLEIK
As to B15, the “HTRF deltaF” value in experiment [1] is -1.8 deltaF.

B16: IMPI-054 (antibody, V domains shown)
VH: EVQLVESGGGLIQPGGSLRLSCAASGLTVSSNYMSWVRQAPGKGLEWVSIIYSGGSTYYADSVKGRFTISRDNSKNTLYLQMNSLRAEDTAVYYCARLGGYYYYGMDVWGQGTTVTVSS
VL: DIQMTQSPSSLSASVGERVTITCQASQDIRNYLNWYQKKPGKAPKLLIYDSSNLETGVPSRFSGSGSGTDFTFTISSLQPEDIATYYCQQYDNLPITFGQGTRLEIK
For B16, the “HTRF deltaF” value in experiment [1] was found to be 15.8 deltaF.

B17: IMPI-042 (antibody, V domains shown)
VH: EVQLVESGGGLIQPGGSLRLSCAASGLTVSSNYMSWVRQAPGKGLEWVSIIYSGGSTYYADSVKGRFTISRDNSKNTLYLQMNSLRAEDTAVYYCARLGGYYYYGMDVWGQGTTVTVSS
VL: DIQMTQSPSSLSASVGERVTITCQASQDIRNYLNWYQKKPGKAPKLLIYDSSNLETGVPSRFSGGGSGTDFTFTISSLQPEDIATYYCQQYDNLPITFGQGTRLEIK
With B17, in experiment [1], the “HTRF deltaF” value came to 1.6 deltaF.

B18: IMPI-059 (antibody, V domains shown)
VH: EVQLVESGGGLIQPGGSLRLSCAASGFTVSSIYMSWVRQAPGKGLEWVSIIYSRGSTDYADSVKGRFTISRDISKNTLYLQMNSLRAEDTAVYYCARDGTMVRGVHAFDIWGQGTMVTVSS
VL: DIQMTQSPPSLSASIGDRVTITCQASQDISNYLNWYQQKPGKAPKLLIYDASNLETGVPSRFSGSGSGTDFTLTISNLQPEDIVTYYCQQYDNLPSSFGQGTKLEIK
With B18, in experiment [2], the Kd was 0.646 nM, the koff is 0.00426 s⁻¹ and the kon stood at 6.59e+06 M⁻¹ s⁻¹.

B19: IMPI-038 (antibody, V domains shown)
VH: QVQLVESGGGVVQPGRSLRLSCAASGFTFSSYGMHWVRQAPGKGLEWVAVISYDGSDKYYADSVKGRFTISRDNSKNTLYLQMNSLRAEDTAVYYCAKTVAGYYYYYYGMDVWGQGTTVTVSS
VL: DIQMTQSPSSVSASVGDRVTVTCRASQDISSWLAWFQQKPGKAPKFLIYDASNLENGVPSRFSGSGSGTDFTLTISSLQPEDFATYYCQQAKSFPWTFGQGTKVEIN
On to B19, for which the affinity in experiment [2], expressed as Kd, was 2.92 nM.

B20: IMPI-055 (antibody, V domains shown)
VH: QVQLVQSGAEVKKPGASVKVSCKASGYTFTSYDINWVRQATGQGLEWMGWMNPNSGNTGYAQKFQGRVTMTRDTSINTAYMELSSLRSEDTAVYFCARGGRYCSDVTCYSGEPFDYWGQGTLVTVSS
VL: EIMLTQSPDFQSVTPKEKVTITCRASQSIGSSLHWYQQKPDQSPKLLIKFASQSISGVPSRFSGSGSGTDFTLTINSLEAEDAAAYYCHQSSSLPHTFGPGTKVEIK
For B20, the “HTRF deltaF” value in experiment [1] is -10.3 deltaF.
